B1: TCR of clonotype 4 (TCR beta CDR3 CASSWEAGQETQYF, SEQ ID NO:4), HPV 16 E6 91-115 specific T cell clonotype of subject 6 (TCR, V domains shown)
V domain 1: GENVEQHPSTLSVQEGDSAVIKCTYSDSASNYFPWYKQELGKGPQLIIDIRSNVGEKKDQRIAVTLNKTAKHFSLHITETQPEDSAVYFCAASAPGRTDKLIFGTGTRLQVFP
V domain 2: KAGVTQTPRYLIKTRGQQVTLSCSPISGHRSVSWYQQTPGQGLQFLFEYFSETQRNKGNFPGRFSGRQFSNSRSEMNVSTLELGDSALYLCASSWEAGQETQYFGPGTRLLVLE
B2: TCR of clonotype 1 (TCR beta CDR3 CASSPTSGGLTWDEQYF, SEQ ID NO:1), HPV 16 E6 91-115 specific T cell clonotype of subject 6 (TCR, V domains shown)
V domain 1: AQSVAQPEDQVNVAEGNPLTVKCTYSVSGNPYLFWYVQYPNRGLQFLLKYITGDNLVKGSYGFEAEFNKSQTSFHLKKPSALVSDSALYFCAVRAPSGSARQLTFGSGTQLTVLP
V domain 2: EAGVAQSPRYKIIEKRQSVAFWCNPISGHATLYWYQQILGQGPKLLIQFQNNGVVDDSQLPKDRFSAERLKGVDSTLKIQPAKLEDSAVYLCASSPTSGGLTWDEQYFGPGTRLTVTE
B3: TCR of clonotype 3 (TCR beta CDR3 CASSFPGENEQFF, SEQ ID NO:3), HPV 16 E6 91-115 specific T cell clonotype of subject 6 (TCR, V domains shown)
V domain 1: GDSVTQMEGPVTLSEEAFLTINCTYTATGYPSLFWYVQYPGEGLQLLLKATKADDKGSNKGFEATYRKETTSFHLEKGSVQVSDSAVYFCALTLSGSARQLTFGSGTQLTVLP
V domain 2: DAGVIQSPRHEVTEMGQEVTLRCKPISGHNSLFWYRQTMMRGLELLIYFNNNVPIDDSGMPEDRFSAKMPNASFSTLKIQPSEPRDSAVYFCASSFPGENEQFFGPGTRLTVLE
B4: TCR of clonotype 2 (TCR beta CDR3 CASSHNSGREGNEQFF, SEQ ID NO:2), HPV 16 E6 91-115 specific T cell clonotype of subject 6 (TCR, V domains shown)
V domain 1: GENVEQHPSTLSVQEGDSAVIKCTYSDSASNYFPWYKQELGKRPQLIIDIRSNVGEKKDQRIAVTLNKTAKHFSLHITETQPEDSAVYFCAPRVTGGGNKLTFGTGTQLKVEL
V domain 2: GAGVSQSPRYKVAKRGQDVALRCDPISGHVSLFWYQQALGQGPEFLTYFQNEAQLDKSGLPSDRFFAERPEGSVSTLKIQRTQQEDSAVYLCASSHNSGREGNEQFFGPGTRLTVLE

Biological target: T1, HPV 16 E6 91-115 region, given as three overlapping 15-mer peptides (91-105 YGTTLEQQYNKPLCD, SEQ ID NO:21); … (human papillomavirus type 16)
T1 peptide: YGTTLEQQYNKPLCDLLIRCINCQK
Assay: cell-based or functional assay

| Binder | Frequency (%) of the clonotype among IFN-gamma secreting cells sorted after peptide stimulation |
| --- | --- |
| B1 | 8.6% |
| B2 | 33.3% |
| B3 | 9.8% |
| B4 | 17% |

Reference: patent US20240025999A1 (BIOVENTURES, published 2024)
